Experiments:
Settings in all cases: both partners purified
[1] = biological target: T1, full-length Rrp5 (recombinant) (S. cerevisiae, UniProt Q05022 1-1729); assay: negative-stain single-particle EM reconstruction; 100 pmol Rok1 incubated with Rrp5 in 300 mM NaCl, 10 mM MgCl2, 30 mM MES pH 6.7, 20°C, 2 h; GraFix glycerol/glutaraldehyde gradient; uranyl formate stain
T1 construct: Rrp5, S. cerevisiae, 193 kDa, 12 S1 domains followed by seven TPR repeats; The His6 tag is named only for the Has1 pull-down (His6-Rrp5, His-Rrp5); I take both to be the one Rrp5-FL preparation; also called Rrp5-FL; Rrp5_FL
T1 sequence (Q05022 whole entry, the tested form may be a part): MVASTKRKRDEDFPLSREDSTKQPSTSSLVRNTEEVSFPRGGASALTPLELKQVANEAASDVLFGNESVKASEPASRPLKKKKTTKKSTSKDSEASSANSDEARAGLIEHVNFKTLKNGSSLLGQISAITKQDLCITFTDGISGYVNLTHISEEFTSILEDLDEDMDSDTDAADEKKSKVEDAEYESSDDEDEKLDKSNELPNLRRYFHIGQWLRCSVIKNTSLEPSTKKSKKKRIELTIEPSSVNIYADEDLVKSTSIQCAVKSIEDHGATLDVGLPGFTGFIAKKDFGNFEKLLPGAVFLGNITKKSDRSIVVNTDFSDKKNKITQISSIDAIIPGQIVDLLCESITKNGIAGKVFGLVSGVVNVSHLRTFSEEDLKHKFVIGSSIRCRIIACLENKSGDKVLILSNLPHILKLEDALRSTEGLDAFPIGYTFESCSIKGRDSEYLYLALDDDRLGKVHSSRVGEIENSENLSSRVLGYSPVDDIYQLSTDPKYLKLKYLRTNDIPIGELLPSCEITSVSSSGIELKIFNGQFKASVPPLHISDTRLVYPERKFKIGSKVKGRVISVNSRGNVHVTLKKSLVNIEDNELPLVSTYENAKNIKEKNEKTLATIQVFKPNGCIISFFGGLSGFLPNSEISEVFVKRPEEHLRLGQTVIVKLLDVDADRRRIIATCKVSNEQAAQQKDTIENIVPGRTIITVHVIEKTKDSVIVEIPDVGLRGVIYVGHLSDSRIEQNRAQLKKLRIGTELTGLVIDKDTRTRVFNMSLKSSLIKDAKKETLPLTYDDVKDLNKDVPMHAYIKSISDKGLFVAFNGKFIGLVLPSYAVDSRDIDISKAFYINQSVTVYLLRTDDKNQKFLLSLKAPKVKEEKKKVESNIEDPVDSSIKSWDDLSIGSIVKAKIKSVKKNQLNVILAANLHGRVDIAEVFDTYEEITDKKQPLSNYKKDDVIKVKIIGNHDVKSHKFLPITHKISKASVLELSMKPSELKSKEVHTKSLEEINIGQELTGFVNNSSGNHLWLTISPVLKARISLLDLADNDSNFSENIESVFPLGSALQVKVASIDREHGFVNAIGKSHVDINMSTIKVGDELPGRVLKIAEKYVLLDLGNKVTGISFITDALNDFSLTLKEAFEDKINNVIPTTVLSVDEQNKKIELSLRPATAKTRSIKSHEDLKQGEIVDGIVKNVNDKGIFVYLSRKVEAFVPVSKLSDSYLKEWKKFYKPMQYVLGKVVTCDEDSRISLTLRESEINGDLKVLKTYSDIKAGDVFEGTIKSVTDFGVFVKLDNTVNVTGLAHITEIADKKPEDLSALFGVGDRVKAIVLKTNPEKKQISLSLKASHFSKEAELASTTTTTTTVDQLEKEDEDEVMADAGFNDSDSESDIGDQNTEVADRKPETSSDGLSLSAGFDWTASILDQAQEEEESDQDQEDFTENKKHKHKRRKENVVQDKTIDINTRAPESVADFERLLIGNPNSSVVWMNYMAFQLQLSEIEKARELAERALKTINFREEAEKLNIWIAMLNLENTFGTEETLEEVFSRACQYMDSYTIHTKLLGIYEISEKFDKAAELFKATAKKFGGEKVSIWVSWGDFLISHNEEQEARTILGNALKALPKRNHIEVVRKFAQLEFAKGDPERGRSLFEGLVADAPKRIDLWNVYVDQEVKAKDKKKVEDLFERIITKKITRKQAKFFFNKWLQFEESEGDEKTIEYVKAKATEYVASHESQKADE

[2] = biological target: T1, full-length Rrp5 (recombinant); assay: pull-down; 5 uM FL Rrp5 or Rrp5 fragments with 3 uM GST-Rok1 (or GST) on GSH sepharose; 150 mM NaCl, 30 mM HEPES/NaOH pH 7.5, 5% glycerol; 4°C; eluted with 20 mM reduced glutathione
[3] = biological target: T1, full-length Rrp5 (recombinant); assay: pull-down; 10 uM FL Rrp5 or Rrp5_TPR2+7 with 15 uM MBP-Rok1 (or MBP) on amylose resin; 150 mM NaCl, 30 mM HEPES/NaOH pH 7.5, 5% glycerol; 4°C; eluted with 20 mM maltose
[4] = biological target: T1, full-length Rrp5 (recombinant); assay: pull-down; 5 uM Has1 with 3 uM His-Rrp5 on Ni-NTA resin, pull-down buffer, 4°C; eluted with 300 mM imidazole

B1: Rok1 (recombinant) (enzyme, S. cerevisiae, UniProt P45818 1-564, looked up)
chain: MDIFRVLTRGASVKKESGPKAKAADYSVINGNDENHKEDNNESQIVKELDFFRNKRIISKVEDDREKTTENDSPNKEEKSGNDDGLIKPVITNTVEASALRKSYKGNVSGIDIPLPIGSFEDLISRFSFDKRLLNNLIENGFTEPTPIQCECIPVALNNRDVLACGPTGSGKTLAFLIPLVQQIIDDKQTAGLKGLIISPTKELANQIFIECFKLSYKIFLEKKRPLQVALLSKSLGAKLKNKVVSDKKYDIIISTPLRLIDVVKNEALDLSKVKHLIFDEADKLFDKTFVEQSDDILSACREPSLRKAMFSATIPSNVEEIAQSIMMDPVRVIIGHKEAANTNIEQKLIFCGNEEGKLIAIRQLVQEGEFKPPIIIFLESITRAKALYHELMYDRINVDVIHAERTALQRDRIIERFKTGELWCLICTDVLARGIDFKGVNLVINYDVPGSSQAYVHRIGRTGRGGRSGKAITFYTKQDSVAIKPIINVMKQSGCEVSEWMDKMAKMTRKEKESIKNGKAHKERKQITTVPKMDKAKRRRQQEMIAASKRRKNEELSKKHFSK
notes: Rok1, DEAD-box protein, 64 kDa; Named Rok1 without a tag, in contrast to MBP-Rok1 and GST-Rok1; also called recombinant Rok1
Question: Does B1 bind [1]?
Answer: binds

B2: glutathione S-transferase (GST)-tagged Rok1 (enzyme, S. cerevisiae, UniProt P45818 1-564, looked up)
chain: MDIFRVLTRGASVKKESGPKAKAADYSVINGNDENHKEDNNESQIVKELDFFRNKRIISKVEDDREKTTENDSPNKEEKSGNDDGLIKPVITNTVEASALRKSYKGNVSGIDIPLPIGSFEDLISRFSFDKRLLNNLIENGFTEPTPIQCECIPVALNNRDVLACGPTGSGKTLAFLIPLVQQIIDDKQTAGLKGLIISPTKELANQIFIECFKLSYKIFLEKKRPLQVALLSKSLGAKLKNKVVSDKKYDIIISTPLRLIDVVKNEALDLSKVKHLIFDEADKLFDKTFVEQSDDILSACREPSLRKAMFSATIPSNVEEIAQSIMMDPVRVIIGHKEAANTNIEQKLIFCGNEEGKLIAIRQLVQEGEFKPPIIIFLESITRAKALYHELMYDRINVDVIHAERTALQRDRIIERFKTGELWCLICTDVLARGIDFKGVNLVINYDVPGSSQAYVHRIGRTGRGGRSGKAITFYTKQDSVAIKPIINVMKQSGCEVSEWMDKMAKMTRKEKESIKNGKAHKERKQITTVPKMDKAKRRRQQEMIAASKRRKNEELSKKHFSK
notes: Rok1, DEAD-box protein; also called GST-Rok1; source: E. coli Rosetta2 (DE3), recombinant; purification not described here
Question: Does B2 bind [2]?
Answer: binds

B3: maltose binding protein (MBP)-tagged Rok1 (enzyme, S. cerevisiae, UniProt P45818 1-564, looked up)
chain: MDIFRVLTRGASVKKESGPKAKAADYSVINGNDENHKEDNNESQIVKELDFFRNKRIISKVEDDREKTTENDSPNKEEKSGNDDGLIKPVITNTVEASALRKSYKGNVSGIDIPLPIGSFEDLISRFSFDKRLLNNLIENGFTEPTPIQCECIPVALNNRDVLACGPTGSGKTLAFLIPLVQQIIDDKQTAGLKGLIISPTKELANQIFIECFKLSYKIFLEKKRPLQVALLSKSLGAKLKNKVVSDKKYDIIISTPLRLIDVVKNEALDLSKVKHLIFDEADKLFDKTFVEQSDDILSACREPSLRKAMFSATIPSNVEEIAQSIMMDPVRVIIGHKEAANTNIEQKLIFCGNEEGKLIAIRQLVQEGEFKPPIIIFLESITRAKALYHELMYDRINVDVIHAERTALQRDRIIERFKTGELWCLICTDVLARGIDFKGVNLVINYDVPGSSQAYVHRIGRTGRGGRSGKAITFYTKQDSVAIKPIINVMKQSGCEVSEWMDKMAKMTRKEKESIKNGKAHKERKQITTVPKMDKAKRRRQQEMIAASKRRKNEELSKKHFSK
notes: Rok1, DEAD-box protein; also called MBP-Rok1; source: E. coli Rosetta2 (DE3), recombinant; purification not described here
Question: Does B3 bind [3]?
Answer: binds

B4: Has1 (recombinant) (enzyme)
chain: not shown
notes: Has1, DEAD-box protein, HAS1 gene cloned from yeast into pSV272 as a TEV-cleavable His6-MBP fusion; also called recombinant Has1; source: E. coli Rosetta2 (DE3), purified (Ni-NTA, MonoS, Superdex S-200)
Question: Does B4 bind [4]?
Answer: binds
